This note sets out measurements from patent US20220356230A1.

“And” between values parts separate entries of the source, which are not always exact repeats. Identical values can stand only once.

In assay [1] the target is SARS-CoV-2 spike protein (S-wt, Wuhan-Hu-1, NCBI Accession Number MN908947.3) on VSV-SARS-CoV-2-S pseudoparticles (SARS-CoV-2) (UniProt P0DTC2). As to the kind of experiment: cell-based or functional assay.
The target in assay [2] is MERS.mFc (mAb2663-L1) (MERS-CoV) (UniProt K9N5Q8). As to the kind of experiment: Luminex bead assay, supernatant.
Assay [3] has as its target VLPs expressing VSV only (negative binding control) (vesicular stomatitis virus).
The target in assay [4] is Bt-MERS.hFc (mAb2664-L2) (MERS-CoV) (UniProt K9N5Q8). In words: Luminex bead assay, supernatant.
The target of assay [5] is MERS.hFc (mAb2664-L1) (MERS-CoV) (UniProt K9N5Q8). As to the kind of experiment: Luminex bead assay, supernatant.
For assay [6], the target named is SARS-CoV-2 Spike Protein (Accession number MN908947.3, amino acids 16-1211) on pseudotyped VSV VLPs (SARS-CoV-2) (UniProt P0DTC2).

With mAb10987 (antibody), the mAb neutralization potency (IC50 (M)) in assay [1] stood at 4.06e-11 M.

In the case of mAb10934 (antibody), in assay [1], the mAb neutralization potency (IC50 (M)) was found to be 5.44e-11 M. The Binding signal (MFI) in assay [2] came out at 77 MFI.

Turning to mAb10933 (antibody), the Antibody Binding Signal (RLU) in assay [3] was 82 RLU and 29 RLU. For the same substance, the Binding signal (MFI) turned out to be 22 MFI in assay [2], 26 MFI in assay [4] and 21 MFI in assay [5].

The substance mAb10936 (antibody) registered a mAb neutralization potency (IC50 (M)) in assay [1] of 1.11e-10 M. The Binding signal (MFI) in assay [2] came out at 32 MFI; in assay [4], 32 MFI; in assay [5], 26 MFI.

IgG1 Isotype Control (antibody): the Ratio VSV/Spike:VSV in assay [6] is 1 and 2.
